Reference: US20200392227A1 (LYVGEN BIOPHARMA, published 2020)
Read-outs that look alike come from different tables or passages of the source.

T1: human FcγRIIC expressed on CHO cells (human, UniProt P31995 43-323)
T1 construct: whole, on cells
T1 sequence (looked up): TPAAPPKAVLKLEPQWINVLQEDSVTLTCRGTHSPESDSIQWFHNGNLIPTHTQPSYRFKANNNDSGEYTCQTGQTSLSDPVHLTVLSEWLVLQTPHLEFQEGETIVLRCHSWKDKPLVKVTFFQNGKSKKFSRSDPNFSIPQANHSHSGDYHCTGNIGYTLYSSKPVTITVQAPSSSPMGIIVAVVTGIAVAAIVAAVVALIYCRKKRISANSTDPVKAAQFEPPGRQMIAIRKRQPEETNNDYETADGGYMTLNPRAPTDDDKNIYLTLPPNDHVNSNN

T2: human FcRIIA protein (MednaBio, E1033) (human, UniProt P12318 34-218, limits assumed)
T2 construct: Bought; also called FcγRIIA
T2 sequence (looked up): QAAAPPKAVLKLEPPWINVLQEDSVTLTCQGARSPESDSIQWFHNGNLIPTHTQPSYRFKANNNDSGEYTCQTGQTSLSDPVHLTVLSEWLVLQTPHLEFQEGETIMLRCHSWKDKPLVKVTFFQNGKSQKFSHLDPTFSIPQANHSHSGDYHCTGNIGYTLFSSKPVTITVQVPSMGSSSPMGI

T3: human FcRIIB/C protein (MednaBio, E1034) (human, UniProt P31994 43-217, limits assumed)
T3 construct: Bought as FcRIIB/C; also called FcγRIIB; CD32B
T3 sequence (looked up): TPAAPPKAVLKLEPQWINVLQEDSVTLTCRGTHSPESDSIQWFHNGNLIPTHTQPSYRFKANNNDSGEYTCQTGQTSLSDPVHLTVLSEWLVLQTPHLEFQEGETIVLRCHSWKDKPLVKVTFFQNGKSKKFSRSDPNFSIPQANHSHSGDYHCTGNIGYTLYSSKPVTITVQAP


Experiments:
[1] = molecular target: T1, human FcγRIIC expressed on CHO cells; assay: FACS, CHO cells expressing FcγRIIC
Description: For FACS analysis of the IgG mutants' binding to different FcγRs, FcγR overexpressing CHO cells were harvested using trypsin-EDTA and were suspended in cold staining buffer (3% BSA in PBS). Test IgG mutants, which were diluted in staining buffer, were added into the cells. The mixture was incubated 4° C. for 2 hours, and then washed twice with cold staining buffer and re-suspended in PE-labeled anti-human IgG followed by incubation at 4° C. for 2 hours. The mixture was washed twice with staining buffer and re-suspended in 2% PFA in PBS for FACS.

[2] = molecular target: T2, human FcRIIA protein (MednaBio, E1033); assay: BLI
How it was run: (§1)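 Binding was measured by biolayer interferometry on an Octet Red96 System, with commercial human Fc receptor proteins loaded at 20 μg/mL onto anti-penta-HIS biosensors. Sensors were dipped into an 8-point 1:3 dilution series of test IgG starting at 300 nM in PBS with 0.1% BSA and 0.02% Tween-20. Fcγ receptor assays ran at pH 7.2 and FcRn assays at pH 6. Kd, kon and koff came from global fitting to a 1:1 binding model.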

[3] = molecular target: T3, human FcRIIB/C protein (MednaBio, E1034); assay: BLI
How it was run: as §1

[4] = molecular target: T4, human FcRIIIA-F158 protein (MednaBio, E1036) (human, UniProt P08637 17-208); assay: BLI
T4 construct: Bought; also called FcγRIIIA(F)
T4 sequence (P08637 17-208 limits assumed): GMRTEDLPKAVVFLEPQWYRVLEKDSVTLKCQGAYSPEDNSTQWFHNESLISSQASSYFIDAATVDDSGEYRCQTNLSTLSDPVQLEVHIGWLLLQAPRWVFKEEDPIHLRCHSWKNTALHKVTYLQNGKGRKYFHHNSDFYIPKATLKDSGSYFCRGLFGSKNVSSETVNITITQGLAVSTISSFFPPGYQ
How it was run: as §1

[5] = molecular target: T5, human FcRIIIA-V158 protein (MednaBio, E1035) (human, UniProt P08637 17-208); assay: BLI
T5 construct: Bought; also called FcγRIIIA(V); FcgRIIIA(V)
T5 sequence (P08637 17-208 F176V): as the sequence (P08637 17-208 limits assumed) above, with F160V counted along it
How it was run: as §1

[6] = molecular target: T6, human FcRIIIB protein (MednaBio, E1037) (human, UniProt O75015 17-200); assay: BLI
T6 construct: Bought; also called FcγRIIIB; FcgRIIIB
T6 sequence (O75015 17-200 limits assumed): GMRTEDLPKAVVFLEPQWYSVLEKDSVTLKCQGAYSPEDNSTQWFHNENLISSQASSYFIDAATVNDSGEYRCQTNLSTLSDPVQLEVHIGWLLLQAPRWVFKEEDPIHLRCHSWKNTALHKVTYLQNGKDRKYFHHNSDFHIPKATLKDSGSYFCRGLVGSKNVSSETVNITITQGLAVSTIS
How it was run: as §1

[7] = molecular target: T7, human FcRn protein (MednaBio, E1032) (human, UniProt P55899 24-297; P61769 21-119); assay: BLI
T7 construct: Bought; assays at pH 6
How it was run: as §1

[8] = molecular target: T8, human FcRI protein (MednaBio, E1031) (human, UniProt P12314 16-288, limits assumed); assay: BLI
T8 construct: Bought; loaded on anti-penta-HIS biosensors; also called FcγRI
T8 sequence (P12314 16-288 limits assumed): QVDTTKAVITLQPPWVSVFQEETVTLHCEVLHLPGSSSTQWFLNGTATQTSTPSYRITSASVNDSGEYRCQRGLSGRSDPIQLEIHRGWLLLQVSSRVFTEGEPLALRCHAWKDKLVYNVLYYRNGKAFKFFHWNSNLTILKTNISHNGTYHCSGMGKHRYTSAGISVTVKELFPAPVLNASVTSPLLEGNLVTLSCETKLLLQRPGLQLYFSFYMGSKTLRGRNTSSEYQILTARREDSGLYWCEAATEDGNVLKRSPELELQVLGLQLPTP
How it was run: as §1

[9] = molecular target: T2, human FcRIIA protein (MednaBio, E1033); assay: BLI; remark: listed apart in the source
How it was run: as §1

[10] = molecular target: T3, human FcRIIB/C protein (MednaBio, E1034); assay: BLI; remark: listed apart in the source
How it was run: as §1

[11] = molecular target: T7, human FcRn protein (MednaBio, E1032); assay: BLI; remark: listed apart in the source
How it was run: as §1

[12] = molecular target: T8, human FcRI protein (MednaBio, E1031); assay: BLI; remark: listed apart in the source
How it was run: as §1

[13] = molecular target: T9, human FcγRI expressed on CHO cells (human, UniProt P12314 16-374); assay: FACS, CHO cells expressing FcγRI
T9 construct: whole, on cells
T9 sequence (P12314 16-374): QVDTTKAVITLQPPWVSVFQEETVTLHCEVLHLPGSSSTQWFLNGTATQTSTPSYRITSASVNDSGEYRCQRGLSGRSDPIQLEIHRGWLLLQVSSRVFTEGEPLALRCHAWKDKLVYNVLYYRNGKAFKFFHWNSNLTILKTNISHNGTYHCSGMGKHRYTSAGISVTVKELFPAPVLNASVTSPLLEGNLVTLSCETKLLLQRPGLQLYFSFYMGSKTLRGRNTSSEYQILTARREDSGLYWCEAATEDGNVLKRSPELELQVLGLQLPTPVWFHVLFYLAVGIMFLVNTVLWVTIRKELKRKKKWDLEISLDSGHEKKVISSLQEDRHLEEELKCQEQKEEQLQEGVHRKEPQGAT
How it was run: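 Trypsin-harvested CHO cells overexpressing each FcγR were incubated 2 h at 4 °C with IgG mutants in 3% BSA/PBS. Bound IgG was detected with PE-labeled anti-human IgG (2 h, 4 °C), then cells were fixed in 2% PFA and analysed by flow cytometry.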

Row | binding result [1] | Kd [9] [nM] | koff [9] [s⁻¹] | kon [9] [M⁻¹ s⁻¹] | Kd [10] [nM] | koff [10] [s⁻¹] | kon [10] [M⁻¹ s⁻¹] | Kd [11] [nM] | koff [11] [s⁻¹] | kon [11] [M⁻¹ s⁻¹] | Binder | also measured
1 | binds |  |  |  |  |  |  |  |  |  | anti-CD137 IgG1 with Fc variant G1m19 (antibody, copies: 2 + 2) heavy: EVQLVQSGAEVKKPGESLRISCKGSGYSFSTYWISWVRQMPGKGLEWMGKIYPGDSYTNYSPSFQGQVTISADKSISTAYLQWSSLKASDTAMYYCARGYGIFDYWGQGTLVTVSSASTKGPSVFPLAPSSKSTSGGTAALGCLVKDYFPEPVTVSWNSGALTSGVHTFPAVLQSSGLYSLSSVVTVPSSSLGTQTYICNVNHKPSNTKVDKKVEPKSCDKTHTCPPCPAPELLSVFLFPPKPKDTLMISRTPEVTCVVVDVEHEDPEVKFNWYVDGVEVHNAKTKPREEQYNSTYRVVSVLTVLHQDWLNGKEYKCKVSNKAFPAPIEKTISKAKGQPREPQVYTLPPSREEMTKNQVSLTCLVKGFYPSDIAVEWESNGQPENNYKTTPPVLDSDGSFFLYSKLTVDKSRWQQGNVFSCSVMHEALHNHYTQKSLSLSPGK light: SYELTQPPSVSVSPGQTASITCSGDNIGDQYAHWYQQKPGQSPVLVIYQDKNRPSGIPERFSGSNSGNTATLTISGTQAMDEADYYCATYTGFGSLAVFGGGTKLTVLGQPKAAPSVTLFPPSSEELQANKATLVCLISDFYPGAVTVAWKADSSPVKAGVETTTPSKQSNNKYAASSYLSLTPEQWKSHRSYSCQVTHEGSTVEKTVAPTECS | Kd [2]: 81 nM; koff [2]: 0.019 s⁻¹; kon [2]: 240000 M⁻¹ s⁻¹; Kd [3]: 110 nM; koff [3]: 0.028 s⁻¹; kon [3]: 260000 M⁻¹ s⁻¹; binding result [4]: no binding (tested: 300 nM); binding result [5]: no binding (tested: 300 nM); binding result [6]: no binding (tested: 300 nM); Kd [7]: 13.4 nM; koff [7]: 0.0103 s⁻¹; kon [7]: 770000 M⁻¹ s⁻¹; Kd [8]: 120 nM; koff [8]: 0.086 s⁻¹; kon [8]: 710000 M⁻¹ s⁻¹
2 | binds | 260 | 0.027 | 100000 | 78 | 0.013 | 170000 | 23 | 0.013 | 560000 | anti-CD137 IgG4 with Fc variant G4m29 (antibody, copies: 2 + 2) heavy: EVQLVQSGAEVKKPGESLRISCKGSGYSFSTYWISWVRQMPGKGLEWMGKIYPGDSYTNYSPSFQGQVTISADKSISTAYLQWSSLKASDTAMYYCARGYGIFDYWGQGTLVTVSSASTKGPSVFPLAPCSRSTSESTAALGCLVKDYFPEPVTVSWNSGALTSGVHTFPAVLQSSGLYSLSSVVTVPSSSLGTKTYTCNVDHKPSNTKVDKRVESKYGPPCPPCPAPEFLGPSVFLFPPKPKDTLMISRTPEVTCVVVDVEQEDPEVQFNWYVDGVEVHNAKTKPREEQFNSTYRVVSVLTVLHQDWLNGKEYKCKVSNKGFPSSIEKTISKAKGQPREPQVYTLPPSQEEMTKNQVSLTCLVKGFYPSDIAVEWESNGQPENNYKTTPPVLDSDGSFFLYSRLTVDKSRWQEGNVFSCSVMHEALHNHYTQKSLSLSLGK light: SYELTQPPSVSVSPGQTASITCSGDNIGDQYAHWYQQKPGQSPVLVIYQDKNRPSGIPERFSGSNSGNTATLTISGTQAMDEADYYCATYTGFGSLAVFGGGTKLTVLGQPKAAPSVTLFPPSSEELQANKATLVCLISDFYPGAVTVAWKADSSPVKAGVETTTPSKQSNNKYAASSYLSLTPEQWKSHRSYSCQVTHEGSTVEKTVAPTECS | Kd [12]: 44 nM; koff [12]: 0.023 s⁻¹; kon [12]: 520000 M⁻¹ s⁻¹
3 | binds | 600 | 0.024 | 40000 | 280 | 0.019 | 68000 | 52 | 0.011 | 210000 | anti-CD137 IgG4 with Fc variant G4m17 (antibody, copies: 2 + 2) heavy: EVQLVQSGAEVKKPGESLRISCKGSGYSFSTYWISWVRQMPGKGLEWMGKIYPGDSYTNYSPSFQGQVTISADKSISTAYLQWSSLKASDTAMYYCARGYGIFDYWGQGTLVTVSSASTKGPSVFPLAPCSRSTSESTAALGCLVKDYFPEPVTVSWNSGALTSGVHTFPAVLQSSGLYSLSSVVTVPSSSLGTKTYTCNVDHKPSNTKVDKRVESKYGPPCPPCPAPEFLSVFLFPPKPKDTLMISRTPEVTCVVVDVEQEDPEVQFNWYVDGVEVHNAKTKPREEQFNSTYRVVSVLTVLHQDWLNGKEYKCKVSNKGLPSSIEKTISKAKGQPREPQVYTLPPSQEEMTKNQVSLTCLVKGFYPSDIAVEWESNGQPENNYKTTPPVLDSDGSFFLYSRLTVDKSRWQEGNVFSCSVMHEALHNHYTQKSLSLSLGK light: SYELTQPPSVSVSPGQTASITCSGDNIGDQYAHWYQQKPGQSPVLVIYQDKNRPSGIPERFSGSNSGNTATLTISGTQAMDEADYYCATYTGFGSLAVFGGGTKLTVLGQPKAAPSVTLFPPSSEELQANKATLVCLISDFYPGAVTVAWKADSSPVKAGVETTTPSKQSNNKYAASSYLSLTPEQWKSHRSYSCQVTHEGSTVEKTVAPTECS | binding result [13]: binds
